Results reported in patent publication US20250296971A1, “GASTRIC INHIBITORY PEPTIDE RECEPTOR LIGANDS” (priority 2021, published 2025).
*1 amine or outer side, *2 acyl side, *3 side chain or, on linkers, in order; H or OH if unused. Bridges are numbered along the chain shown (N, C = ends). Primed or numbered codes have the meaning given here. Where no end group is shown, it is not given here. Side-chain parts run from the residue outwards. [ ]: non-standard residue; d: D form. The star is where a group is joined. EuDOTA = DOTA europium complex, O=C([O-])CN1CCN(CC(=O)[O-])CCN(CC(=O)*)CCN(CC(=O)[O-])CC1.[Eu+3]; Ttds = 1,13-diamino-4,7,10-trioxatridecan-succinamic acid, NCCCOCCOCCOCCCNC(=O)CCC(=O)*; DOTA(In) = O=C1CN2CCN3CCN(CC(=O)*)CCN(CC2)CC(=O)[O][In]([O]1)[O]C(=O)C3; NH(1-deoxy-D-glucityl) = OC[C@@H](O)[C@@H](O)[C@H](O)[C@@H](O)CN*; (dE)(AGLU) = D-glutamic acid bearing 1-amino-1-deoxy-D-glucitol; dE(AGLU) = D-glutamic acid bearing 1-amino-1-deoxy-D-glucitol; Ttds(4) = 1,13-diamino-4,7,10-trioxatridecan-succinamic acid; Pro(trans-4-NH2) = O=C([C@@H]1C[C@@H](N[*:3])CN1[*:1])[*:2]; DOTA = O=C(O)CN1CCN(CC(=O)O)CCN(CC(=O)*)CCN(CC(=O)O)CC1; 2Lut = 2,6-lutidylidene bridge between two thiols; Trp(5-Cl) = N[C@@H](Cc1c[nH]c2ccc(Cl)cc12)C(=O)O; Pyridine(2,6-diCH2) = c1cc(C[*:1])nc(C[*:2])c1; Trp(5-F) = N[C@@H](Cc1c[nH]c2ccc(F)cc12)C(=O)O; Trp(6-F) = N[C@@H](Cc1c[nH]c2cc(F)ccc12)C(=O)O; APAc = 4-amino-1-carboxymethylpiperidine; 1Nal = N[C@@H](Cc1cccc2ccccc12)C(=O)O; mXylylene = c1cc(C[*:1])cc(C[*:2])c1; LuDOTA = DOTA Lutetium(III) complex; Glutaryl = O=C(CCCC(=O)[*:2])[*:1]; AGLU = 1-amino-1-deoxy-D-glucitol; Hyp = O=C(O)[C@@H]1C[C@@H](O)CN1; Cysteamide = C(CS[*:3])N[*:1]; dGlu(AGLU) = not defined here; Suc = O=C(CCC(=O)[*:2])[*:1]; 2Lut(3) = 2,6-lutidylidene; hSer = N[C@@H](CCO)C(=O)O; Api = NC1(C(=O)O)CCNCC1; Thp = NC1(C(=O)O)CCOCC1; Aib = CC(C)(N)C(=O)O

target: human Gastric Inhibitory Peptide Receptor (human) (UniProt P48546); assay: FACS competition with GIP-057 on CHO-K1-hGIPR cells; pIC50 category A: >8.0
Sequence (P48546 22-466 limits assumed): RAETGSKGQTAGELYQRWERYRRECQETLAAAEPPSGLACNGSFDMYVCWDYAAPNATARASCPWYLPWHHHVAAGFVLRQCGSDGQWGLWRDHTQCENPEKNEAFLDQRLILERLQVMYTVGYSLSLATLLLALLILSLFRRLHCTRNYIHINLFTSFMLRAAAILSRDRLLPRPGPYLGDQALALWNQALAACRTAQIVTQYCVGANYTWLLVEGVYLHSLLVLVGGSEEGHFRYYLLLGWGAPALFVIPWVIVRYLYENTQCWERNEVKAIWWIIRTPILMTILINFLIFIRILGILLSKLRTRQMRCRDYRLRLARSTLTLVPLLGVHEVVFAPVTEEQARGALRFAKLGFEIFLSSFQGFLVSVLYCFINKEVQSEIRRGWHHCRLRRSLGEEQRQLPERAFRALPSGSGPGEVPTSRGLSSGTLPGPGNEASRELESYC

pIC50 [pic50]	Binder
> 8	{EuDOTA-dGlu(AGLU)-APAc}-DW[Trp(5-Cl)][Hyp]E[dL]C[Thp]LIC-{APAc-dGlu(AGLU)-NH2} (linker 7-11 via 2Lut; reading uncertain; also: Eu complex of DOTA) [EuDOTA-glu(AGLU)-APAc-Asp-Trp-5Clw-Hyp-Glu-leu-[Cys(2Lut)-Thp-Leu-Ile-Cys]-APAc-glu(AGLU)-NH2]
> 8	{DOTA-Ttds}-DW[Trp(5-Cl)][Hyp]E[dL]C[Thp]LICK(DOTA)-NH2 (linker 7-11 via 2Lut(3)) [DOTA-Ttds-Asp-Trp-5Clw-Hyp-Glu-leu-[Cys(2Lut)-Thp-Leu-Ile-Cys]-Lys(DOTA)-NH2]
> 8	{DOTA-dE(AGLU)}-DW[Trp(5-Cl)][Hyp]E[dL]C[Thp]LIC-{APAc-dE(AGLU)-NH2} (linker 7-11 via Pyridine(2,6-diCH2)) [DOTA-glu(AGLU)-Asp-Trp-5Clw-Hyp-Glu-leu-[Cys(2Lut)-Thp-Leu-Ile-Cys]-APAc-glu(AGLU)-NH2]
> 8	{LuDOTA-dE(AGLU)-APAc}-DW[Trp(5-Cl)][Hyp]E[dL]C[Thp]LIC-{APAc-dE(AGLU)-NH2} (linker 7-11 via Pyridine(2,6-diCH2)) [LuDOTA-glu(AGLU)-APAc-Asp-Trp-5Clw-Hyp-Glu-leu-[Cys(2Lut)-Thp-Leu-Ile-Cys]-APAc-glu(AGLU)-NH2]
> 8	{AGLU-Glutaryl-APAc}-DW[Trp(5-Cl)][Pro(trans-4-NH2)]E[dL]C[Api]LIC-{APAc-dE(AGLU)-NH2} (linker 7-11 via Pyridine(2,6-diCH2); not fully specified (residue 8); also: DOTA complexed with Lu (LuDOTA))
> 8	DW[Trp(5-Cl)][Pro(trans-4-NH2)]E[dL]C[Thp]LIC-{APAc-(dE)(AGLU)-NH2} (linker 7-11 via Pyridine(2,6-diCH2); not fully specified (N-terminus); printed as DOTA-PEG6-glu(AGLU)-Asp-Trp-5Clw-Tap-Glu-leu-[Cys(2Lut)-Thp-Leu-Ile-Cys]-APAc-glu(AGLU)-NH2) [DOTA-PEG6-glu(AGLU)-Asp-Trp-5Clw-Tap-Glu-leu-[Cys(2Lut)-Thp-Leu-Ile-Cys]-APAc-glu(AGLU)-NH2]
> 8	Ac-D[Trp(6-F)][1Nal]PE[dL]C[Aib]LIC-{Ttds(4)-K(DOTA)-NH2} (linker 7-11 via mXylylene) [Ac-Asp-6Fw-1Ni-Pro-Glu-leu-[Cys(3MeBn)-Aib-Leu-Ile-Cys]-Ttds-Lys(DOTA)-NH2]
> 8	{DOTA(In)-dE(AGLU)-APAc}-DW[Trp(5-Cl)][Hyp]E[dL]C[Thp]LIC-{APAc-dE(AGLU)-NH2} (linker 7-11 via Pyridine(2,6-diCH2)) [InDOTA-glu(AGLU)-APAc-Asp-Trp-5Clw-Hyp-Glu-leu-[Cys(2Lut)-Thp-Leu-Ile-Cys]-APAc-glu(AGLU)-NH2]
> 8	Ac-D[Trp(5-F)][1Nal]PE[dL]C[Aib]LIC-{Ttds(4)-K(DOTA)-NH2} (linker 7-11 via mXylylene) [Ac-Asp-5Fw-1Ni-Pro-Glu-leu-[Cys(3MeBn)-Aib-Leu-Ile-Cys]-Ttds-Lys(DOTA)-NH2]
> 8	{AGLU-Glutaryl-APAc}-DW[Trp(5-Cl)][Pro(trans-4-NH2)]E[dL]C[Api]LIC-{APAc-dE(AGLU)-NH2} (linker 7-11 via Pyridine(2,6-diCH2); not fully specified (residue 8); also: DOTA complexed with In (InDOTA))
> 8	{AGLU-Glutaryl}-DW[Trp(5-Cl)][Pro(trans-4-NH2)]E[dL]C[Api](GaNODAGA)LIC-{APAc-dE(AGLU)-NH2} (linker 7-11 via Pyridine(2,6-diCH2)) [AGLU-Glutar-Asp-Trp-5Clw-Tap-Glu-leu-[Cys(2Lut)-Apc(GaNODAGA)-Leu-Ile-Cys]-APAc-glu(AGLU)-NH2]
> 8	{DOTA-Ttds}-DW[Trp(5-Cl)]PE[dL]C[Api](DOTA)LI[Cysteamide] (linker (positions not given here) via mXylylene; not fully specified (bridges); printed as DOTA-Ttds-Asp-Trp-5Clw-Pro-Glu-leu-[Cys(3MeBn)-Apc(DOTA)-Leu-Ile-AET]) [DOTA-Ttds-Asp-Trp-5Clw-Pro-Glu-leu-[Cys(3MeBn)-Apc(DOTA)-Leu-Ile-AET]]

Second part, the binder before the results:

Binder	pIC50 [pic50]
{AGLU-Glutaryl}-[hSer]W[Trp(5-Cl)][Pro(trans-4-NH2)]E[dL]C[Api](DOTA)LIC-{APAc-dE(AGLU)-NH2} (linker 7-11 via Pyridine(2,6-diCH2)) [AGLU-Glutar-Hse-Trp-5Clw-Tap-Glu-leu-[Cys(2Lut)-Apc(DOTA)-Leu-Ile-Cys]-APAc-glu(AGLU)-NH2]	> 8
{DOTA-Ttds}-DW[Trp(5-Cl)][Hyp]E[dL]C[Api](DOTA)LICK(DOTA)-NH2 (linker 7-11 via 2Lut(3)) [DOTA-Ttds-Asp-Trp-5Clw-Hyp-Glu-leu-[Cys(2Lut)-Apc(DOTA)-Leu-Ile-Cys]-Lys(DOTA)-NH2]	> 8
{AGLU-Glutaryl-APAc}-DW[Trp(5-Cl)][Pro(trans-4-NH2)]E[dL]C[Api]LIC-{APAc-dE(AGLU)-NH2} (linker 7-11 via Pyridine(2,6-diCH2); not fully specified (residue 8); also: DOTA complexed with Ga (GaDOTA))	> 8
{AGLU-Glutaryl-APAc}-DW[Trp(5-Cl)][Hyp]E[dL]C[Api]LIC-{APAc-dE(AGLU)-NH2} (linker 7-11 via Pyridine(2,6-diCH2); not fully specified (residue 8))	> 8
{DOTA-Ttds}-DW[Trp(5-Cl)][Pro(trans-4-NH2)](DOTA)E[dL]C[Api](DOTA)LICK(DOTA)-NH2 (linker 7-11 via Pyridine(2,6-diCH2)) [DOTA-Ttds-Asp-Trp-5Clw-Tap(DOTA)-Glu-leu-[Cys(2Lut)-Apc(DOTA)-Leu-Ile-Cys]-Lys(DOTA)-NH2]	> 8
DW[Trp(5-Cl)][Pro(trans-4-NH2)]E[dL]C[Api]([Glutaryl-NH(1-deoxy-D-glucityl)])LIC-{APAc-(dE)(AGLU)-NH2} (linker 7-11 via Pyridine(2,6-diCH2); not fully specified (N-terminus); printed as DOTA-O2Oc-glu(AGLU)-Asp-Trp-5Clw-Tap-Glu-leu-[Cys(2Lut)-Apc(AGLU-Glutar)-Leu-Ile-Cys]-APAc-glu(AGLU)-NH2)	> 8
DWXXEXCXLIC (N-term AGLU-Glutar; 5Clw; Hyp; leu (D-Leu); thioether cycle [Cys(2Lut)..Cys]; Apc(GaDOTA); C-term APAc-glu(AGLU)-NH2) [AGLU-Glutar-Asp-Trp-5Clw-Hyp-Glu-leu-[Cys(2Lut)-Apc(GaDOTA)-Leu-Ile-Cys]-APAc-glu(AGLU)-NH2]	> 8
{DOTA-dE(AGLU)}-DW[Trp(5-Cl)][Pro(trans-4-NH2)]E[dL]C[Api]([Glutaryl-NH(1-deoxy-D-glucityl)])LIC-{APAc-dE(AGLU)-NH2} (linker 7-11 via Pyridine(2,6-diCH2)) [DOTA-glu(AGLU)-Asp-Trp-5Clw-Tap-Glu-leu-[Cys(2Lut)-Apc(AGLU-Glutar)-Leu-Ile-Cys]-APAc-glu(AGLU)-NH2]	> 8
Suc-W[Trp(5-Cl)][Hyp]E[dL]C[Api]([Glutaryl-NH(1-deoxy-D-glucityl)])LIC-{APAc-Lys(DOTA)-NH2} (linker 6-10 via Pyridine(2,6-diCH2)) [HO-Succinyl-Trp-5Clw-Hyp-Glu-leu-[Cys(2Lut)-Apc(AGLU-Glutar)-Leu-Ile-Cys]-APAc-Lys(DOTA)-NH2]	> 8
{DOTA-dE(AGLU)-APAc}-DW[Trp(5-Cl)][Hyp]E[dL]C[Api]([Glutaryl-NH(1-deoxy-D-glucityl)])LIC-{APAc-dE(AGLU)-NH2} (linker 7-11 via Pyridine(2,6-diCH2))	> 8
{AGLU-Glutaryl}-DW[Trp(5-Cl)][Pro(trans-4-NH2)]E[dL]C[Api](DOTA)LI[dC]-{APAc-dE(AGLU)-NH2} (linker 7-11 via Pyridine(2,6-diCH2)) [AGLU-Glutar-Asp-Trp-5Clw-Tap-Glu-leu-[Cys(2Lut)-Apc(DOTA)-Leu-Ile-cys]-APAc-glu(AGLU)-NH2]	> 8
